Assay results taken from publication PMC10128974, “Sulfonylpiperazine compounds prevent Plasmodium falciparum invasion of red blood cells through interference with actin-1/profilin dynamics” (PLOS Biology, 2023).

Tests used:
[1] = target: T1, PfACT1 with PfPFN (P. falciparum actin-1/profilin) (Plasmodium falciparum, UniProt Q8I2J4+Q8I4X0); test: actin cosedimentation by ultracentrifugation, SDS-PAGE densitometry; assay type: biochemical; conditions: 4 uM PfACT1, 16 uM PfPFN, 25 uM compound, 50 mM KCl, 4 mM MgCl2, 1 mM EGTA, 0.5 mM ATP, 2.5% DMSO, pH 7.5, about 22 C, 16 h, binding site not located
T1 construct: gene ACT1; PfACT1 from S. frugiperda Sf21 cells (baculovirus)
Excerpt: actin cosedimentation by ultracentrifugation, SDS-PAGE densitometry on PfACT1 with PfPFN (P. falciparum actin-1/profilin) | S-W827, decreased the amount of actin in the pellet further to | All MMV291 analogues, S-MMV291, R-MMV291, S-W936, R-W936, S-W414, and S-W827, decreased the amount of actin

[2] = target: Plasmodium falciparum actin-1 (P. falciparum) (UniProt Q8I4X0)
Chain of Plasmodium falciparum actin-1 (P. falciparum) (Q8I4X0 whole entry): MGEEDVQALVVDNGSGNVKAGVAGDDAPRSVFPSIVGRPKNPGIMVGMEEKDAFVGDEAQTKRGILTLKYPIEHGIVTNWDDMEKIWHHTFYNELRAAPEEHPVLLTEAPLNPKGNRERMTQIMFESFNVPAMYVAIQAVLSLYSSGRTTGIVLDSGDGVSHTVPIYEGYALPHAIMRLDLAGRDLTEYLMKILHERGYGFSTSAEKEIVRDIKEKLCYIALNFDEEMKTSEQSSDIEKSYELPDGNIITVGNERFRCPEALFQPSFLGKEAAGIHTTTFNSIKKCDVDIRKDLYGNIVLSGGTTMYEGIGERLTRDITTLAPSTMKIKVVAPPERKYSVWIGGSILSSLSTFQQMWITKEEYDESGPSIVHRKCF

T1 sequence (Q8I4X0 whole entry, one chain of several): as the sequence (Q8I4X0 whole entry) above

relative amount of PfACT1 (4 uM) in the pellet fraction of the sedimentation assay under polymerizing conditions with PfPFN (16 uM), DMSO [2] [%]	relative amount of PfACT1 (4 uM) in the pellet fraction of the sedimentation assay with PfPFN (16 uM) and R-MMV291 (25 uM) [2] [%]	relative amount of PfACT1 (4 uM) in the pellet fraction of the sedimentation assay with PfPFN (16 uM) and R-W936 (25 uM) [2] [%]	relative amount of PfACT1 (4 uM) in the pellet fraction of the sedimentation assay with PfPFN (16 uM) and S-MMV291 (25 uM) [2] [%]	relative amount of PfACT1 (4 uM) in the pellet fraction of the sedimentation assay with PfPFN (16 uM) and S-W414 (25 uM) [2] [%]	relative amount of PfACT1 (4 uM) in the pellet fraction of the sedimentation assay with PfPFN (16 uM) and S-W827 (25 uM) [2] [%]	relative amount of PfACT1 (4 uM) in the pellet fraction of the sedimentation assay with PfPFN (16 uM) and S-W936 (25 uM) [2] [%]	Molecule	% PfACT1 in pellet at 25 uM [1] [%]
							CC(C(=O)N1CCCC1)N1CCN(S(=O)(=O)c2ccc(C(C)(C)C)cc2)CC1 (racemic) [S-MMV291]	11 ± 1
							CC(C(=O)N1CCCC1)N1CCN(S(=O)(=O)c2ccc(C(C)(C)C)cc2)CC1 (racemic) [R-MMV291]	15 ± 2
21	15	10	11	9	5	8	Plasmodium falciparum profilin (natural protein) MAEEYSWDSYLNDRLLATNQVSGAGLASEEDGVVYACVAQGEESDPNFDKWSLFYKEDYDIEVEDENGTKTTKTINEGQTILVVFNEGYAPDGVWLGGTKYQFINIERDLEFEGYNFDVATCAKLKGGLHLVKVPGGNILVVLYDEEKEQDRGNSKIAALTFAKELAESSQ	
